# Measured values: publication PMC5605238
# T1: RecQ4 (Homo sapiens, UniProt O94761 1-1208)
# T1 sequence: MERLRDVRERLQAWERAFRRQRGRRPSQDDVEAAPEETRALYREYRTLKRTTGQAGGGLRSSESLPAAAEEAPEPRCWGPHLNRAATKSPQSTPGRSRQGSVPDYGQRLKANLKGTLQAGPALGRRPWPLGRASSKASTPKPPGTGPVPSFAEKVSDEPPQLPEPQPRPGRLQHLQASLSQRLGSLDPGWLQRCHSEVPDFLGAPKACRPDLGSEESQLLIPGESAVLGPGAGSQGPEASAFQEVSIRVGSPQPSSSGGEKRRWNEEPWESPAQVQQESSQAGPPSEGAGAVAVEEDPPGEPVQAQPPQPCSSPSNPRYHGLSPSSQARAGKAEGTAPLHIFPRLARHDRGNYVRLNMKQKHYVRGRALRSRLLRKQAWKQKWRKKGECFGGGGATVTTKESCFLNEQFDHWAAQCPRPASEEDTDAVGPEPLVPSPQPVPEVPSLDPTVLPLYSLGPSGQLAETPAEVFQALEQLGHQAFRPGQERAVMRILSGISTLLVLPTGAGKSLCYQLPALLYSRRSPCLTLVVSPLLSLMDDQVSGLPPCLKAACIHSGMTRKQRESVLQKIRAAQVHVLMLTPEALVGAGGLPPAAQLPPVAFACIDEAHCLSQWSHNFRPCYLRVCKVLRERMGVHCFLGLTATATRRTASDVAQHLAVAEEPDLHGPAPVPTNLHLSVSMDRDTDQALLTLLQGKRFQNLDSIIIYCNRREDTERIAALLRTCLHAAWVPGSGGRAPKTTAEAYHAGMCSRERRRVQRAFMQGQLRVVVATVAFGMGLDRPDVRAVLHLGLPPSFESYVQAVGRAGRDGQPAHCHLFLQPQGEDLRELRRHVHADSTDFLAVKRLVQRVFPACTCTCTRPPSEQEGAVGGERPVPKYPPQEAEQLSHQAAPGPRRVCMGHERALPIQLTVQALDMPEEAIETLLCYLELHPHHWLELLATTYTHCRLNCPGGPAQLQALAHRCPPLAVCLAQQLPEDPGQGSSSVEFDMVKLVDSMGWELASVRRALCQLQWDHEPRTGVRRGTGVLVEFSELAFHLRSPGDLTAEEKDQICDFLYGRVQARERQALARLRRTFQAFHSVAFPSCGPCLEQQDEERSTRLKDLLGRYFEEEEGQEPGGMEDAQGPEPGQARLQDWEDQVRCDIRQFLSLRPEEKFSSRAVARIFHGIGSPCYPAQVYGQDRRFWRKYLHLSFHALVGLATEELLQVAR
# T2: Hrq1 (Saccharomyces cerevisiae, UniProt Q05549 1-1077)
# T2 sequence: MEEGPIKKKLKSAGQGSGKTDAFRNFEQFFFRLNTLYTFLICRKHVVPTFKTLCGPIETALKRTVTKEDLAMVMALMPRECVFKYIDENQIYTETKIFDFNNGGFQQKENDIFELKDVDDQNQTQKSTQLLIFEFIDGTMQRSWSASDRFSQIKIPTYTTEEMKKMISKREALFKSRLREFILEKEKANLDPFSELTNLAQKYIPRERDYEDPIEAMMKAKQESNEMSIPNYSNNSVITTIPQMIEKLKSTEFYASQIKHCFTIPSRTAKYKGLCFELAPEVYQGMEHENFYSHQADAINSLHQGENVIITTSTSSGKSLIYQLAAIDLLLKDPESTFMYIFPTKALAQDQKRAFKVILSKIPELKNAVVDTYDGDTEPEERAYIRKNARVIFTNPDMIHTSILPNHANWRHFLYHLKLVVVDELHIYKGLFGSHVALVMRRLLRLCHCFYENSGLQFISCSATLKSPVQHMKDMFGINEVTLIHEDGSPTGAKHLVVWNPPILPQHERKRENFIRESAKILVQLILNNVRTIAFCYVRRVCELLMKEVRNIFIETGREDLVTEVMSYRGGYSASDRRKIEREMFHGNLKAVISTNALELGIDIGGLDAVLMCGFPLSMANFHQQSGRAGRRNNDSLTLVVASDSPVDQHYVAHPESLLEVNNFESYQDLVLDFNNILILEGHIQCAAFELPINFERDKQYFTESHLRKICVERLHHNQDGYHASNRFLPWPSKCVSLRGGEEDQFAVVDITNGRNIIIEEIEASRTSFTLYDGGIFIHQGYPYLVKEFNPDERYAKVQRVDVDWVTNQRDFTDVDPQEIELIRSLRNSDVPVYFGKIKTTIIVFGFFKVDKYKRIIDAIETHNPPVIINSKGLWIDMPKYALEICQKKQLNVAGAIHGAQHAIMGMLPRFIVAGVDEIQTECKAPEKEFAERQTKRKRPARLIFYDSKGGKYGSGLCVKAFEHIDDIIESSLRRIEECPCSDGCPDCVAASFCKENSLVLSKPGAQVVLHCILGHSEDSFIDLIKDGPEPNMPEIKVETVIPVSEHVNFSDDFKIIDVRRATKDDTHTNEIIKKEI
# Legend:
# RecQ4 = target: T1, RecQ4; test: EMSA
# Hrq1 = target: T2, Hrq1; test: EMSA
Binder,Kd (RecQ4) [nM],Kd (Hrq1) [nM]
Bubble (dsDNA) DNA 1: GGTGAACCTGCAGGTGGGCGGCTGCTCATCGTAGGTTAGTTGGTAGAATTCGGCAGCGTC DNA 2: GACGCTGCCGAATTCTAGGTTGATTGGATGCTACTCGTCGGCGCCACCTGCAGGTTCACC,16.8 ± 2.3,36.1 ± 4.9
Human Tel Fork (Poly(TTAGGG) Fork) (dsDNA) DNA 1: TTAGGGTTAGGGTTAGGGTTAGGGTGTGTCACTCACATAGCGTTC DNA 2: GAACGCTATGTGAGTGACACTTAGGGTTAGGGTTAGGGTTAGGGT,39.7 ± 8.3,15.7 ± 1.7
TTTTTTTTTTTTTTTTTTTTTTTTTTTTTTTTTTTTTTTT (ssDNA) [Poly(dT) 40mer ssDNA],2.38 ± 0.15,3.45 ± 0.19
D-loop (structured_DNA) DNA 1: GGGTGAACCTGCAGGTGGGCGGCTGCTCATCGTAGGTTAGTGGTAGAATTCGGCAGCGTC DNA 2: GACGCTGCCGAATTCTACCATGCCTTGCTAGGACATCTTTGCCCACCTGCAGGTTCACCC DNA 3: TAAGAGCAAGATGTTCTATAAAAGATGTCCTAGCAAGGCA,12.6 ± 1.8,9.9 ± 0.7
G4 (structured_DNA) DNA: AAAGGGGGAGCTGGGGTAGATGGGAATGTGAGGGCAACAGGTGAGTCAACGTGTTGCCA,12.3 ± 2.5,17.6 ± 2.2
Poly(dT) Fork (dsDNA) DNA 1: TTTTTTTTTTTTTTTTTTTTTTTTTGTGTCACTCACATAGCGTTC DNA 2: GAACGCTATGTGAGTGACACTTTTTTTTTTTTTTTTTTTTTTTTT,50.9 ± 10.4,6.5 ± 0.5
Holliday junction (HJ) (structured_DNA) DNA 1: GACGCTGCCGAATTCTGGCTTGCTAGGACATCTTTGCCCACGTTGACCC DNA 2: TGGGTCAACGTGGGCAAAGATGTCCTAGCAATGTAATCGTCTATGACGTT DNA 3: CAACGTCATAGACGATTACATTGCTAGGACATGCTGTCTAGAGACTATCGA DNA 4: ATCGATAGTCTCTAGACAGCATGTCCTAGCAAGCCAGAATTCGGCAGCGT,90.1 ± 23.4,79.2 ± 22.7
25-nt Random Fork (dsDNA) DNA 1: ACCGTTGTGCAACTGAGTGGACAACGTGTCACTCACATAGCGTTC DNA 2: GAACGCTATGTGAGTGACACCAACAGGTGAGTCAACGTGTTGCCA,108 ± 32.5,–
5' tail (dsDNA) DNA 1: ACCGTTGTGCAACTGAGTGGACAACGTGTCACTCACATAGCGTTC DNA 2: GAACGCTATGTGAGTGACAC,102 ± 29.4,154 ± 44.6
3' tail (dsDNA) DNA 1: GAACGCTATGTGAGTGACACCAACAGGTGAGTCAACGTGTTGCCA DNA 2: GTGTCACTCACATAGCGTTC,21.8 ± 4.2,141 ± 59.4
Yeast Tel Fork (Poly(TG1-3) Fork) (dsDNA) DNA 1: GGTGTGGTGTGGGTGTGGTGTGGGTGTGTCACTCACATAGCGTTC DNA 2: GAACGCTATGTGAGTGACACTGGGTGTGGTGTGGGTGTGGTGTGG,18.5 ± 3.1,3.5 ± 0.4
